Test results published in the supplement of paper PMC9233669.
Variants at the floor of the assay were thinned out.

Columns and labels:
biotinyl-Trp-oxazolone = experiment: self-aminoacylation, catalytic enhancement (BWO) (fold over background); higher = more active; k-Seq, kA / k0A0; sequences stand for … in GGGAAUGGAUCCACAUCUACGAAUUC…UUCACUGCAGACUUGACGAAGCUG
Procedure, shortened: (§1)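 Each biotinyl-aminoacyl-oxazolone, at 2–1250 μM, was incubated with mutagenized RNA pools (0.43 μM) carrying a 21-nt variable region. The 50 μL reactions contained HEPES/NaCl/KCl/MgCl2/CaCl2 buffer with 5% acetonitrile at pH 6.9–7.0 and ran for 90 minutes at room temperature. After streptavidin capture, RNA was measured by qPCR in triplicate and by Illumina sequencing, and catalytic enhancement was calculated as median kA over the uncatalyzed rate from a pseudo-first-order fit of per-sequence fraction reacted.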

biotinyl-Val-oxazolone = experiment: self-aminoacylation, catalytic enhancement (BVO) (fold over background); higher = more active; k-Seq, kA / k0A0; sequences stand for … in GGGAAUGGAUCCACAUCUACGAAUUC…UUCACUGCAGACUUGACGAAGCUG
Procedure, shortened: as §1

biotinyl-Ile-oxazolone = experiment: self-aminoacylation, catalytic enhancement (BIO) (fold over background); higher = more active; k-Seq, kA / k0A0; sequences stand for … in GGGAAUGGAUCCACAUCUACGAAUUC…UUCACUGCAGACUUGACGAAGCUG
Procedure, shortened: as §1

biotinyl-Met-oxazolone = experiment: self-aminoacylation, catalytic enhancement (BMO) (fold over background); higher = more active; k-Seq, kA / k0A0; sequences stand for … in GGGAAUGGAUCCACAUCUACGAAUUC…UUCACUGCAGACUUGACGAAGCUG
Procedure, shortened: as §1

biotinyl-Phe-oxazolone = experiment: self-aminoacylation, catalytic enhancement (BFO) (fold over background); higher = more active; k-Seq, kA / k0A0; sequences stand for … in GGGAAUGGAUCCACAUCUACGAAUUC…UUCACUGCAGACUUGACGAAGCUG
Procedure, shortened: as §1

biotinyl-Leu-oxazolone = experiment: self-aminoacylation, catalytic enhancement (BLO) (fold over background); higher = more active; k-Seq, kA / k0A0; sequences stand for … in GGGAAUGGAUCCACAUCUACGAAUUC…UUCACUGCAGACUUGACGAAGCUG
Procedure, shortened: as §1

Sequence | self-aminoacylation (biotinyl-Trp-oxazolone) | self-aminoacylation (biotinyl-Val-oxazolone) | self-aminoacylation (biotinyl-Ile-oxazolone) | self-aminoacylation (biotinyl-Met-oxazolone) | self-aminoacylation (biotinyl-Phe-oxazolone) | self-aminoacylation (biotinyl-Leu-oxazolone)
CCACACUUGAAGCAAUAGGUC [Fam1B.1 aminoacylation ribozyme variant] | 0.438 | 0.513 | 0.563 | 0.509 | 0.578 | 0.471
CCACACUUGAAGCAAUCGAUC [Fam1B.1 aminoacylation ribozyme variant] | 0.348 | 0.612 | 0.482 | 0.436 | 0.662 | 0.407
CCACACUUGAAGCAAUCGGGC [Fam1B.1 aminoacylation ribozyme variant] | 2.26 | 2.63 | 1.55 | 1.34 | 5.71 | 1.57
CCACACUUGAAGCAAUCGUUC [Fam1B.1 aminoacylation ribozyme variant] | 0.436 | 0.825 | 0.685 | 0.487 | 0.863 | 0.674
CCACACUUGAAGCAAUUGGUC [Fam1B.1 aminoacylation ribozyme variant] | 0.386 | 0.587 | 0.643 | 0.63 | 0.359 | 0.539
CCACACUUGAAGCGAUCGGUC [Fam1B.1 aminoacylation ribozyme variant] | 0.952 | 1.39 | 1.41 | 1.36 | 1.67 | 0.996
CCACACUUGAAGGAAUCGGUC [Fam1B.1 aminoacylation ribozyme variant] | 1.71 | 1.39 | 1.28 | 1.39 | 1.23 | 1.55
CCACACUUUAAGAAAUCGGUC [Fam1B.1 aminoacylation ribozyme variant] | 0.727 | 0.663 | 0.841 | 0.607 | 0.835 | 0.782
CCACACUUUAAGCAAUCGCUC [Fam1B.1 aminoacylation ribozyme variant] | 1.2 | 1.08 | 0.99 | 1.1 | 0.598 | 0.897
CCACACUUUAAGCAAUCGGAC [Fam1B.1 aminoacylation ribozyme variant] | 0.544 | 0.839 | 0.85 | 0.664 | 0.866 | 0.737
CCACACUUUAAGCAAUCGGGC [Fam1B.1 aminoacylation ribozyme variant] | 1.01 | 1.34 | 1.61 | 1.63 | 1.22 | 1.65
CCACACUUUAAGCAAUGGGUC [Fam1B.1 aminoacylation ribozyme variant] | 0.612 | 0.613 | 0.696 | 0.686 | 0.774 | 0.618
CCACACUUUAAGCAUUCGGUC [Fam1B.1 aminoacylation ribozyme variant] | 1.36 | 1.3 | 1.39 | 1.01 | 1.05 | 1.21
CCACACUUUCAGCAAUCGGUC [Fam1B.1 aminoacylation ribozyme variant] | 0.664 | 1.09 | 1.01 | 0.799 | 1.04 | 0.966
CCACAGUUCAAGAAAUCGGUC [Fam1B.1 aminoacylation ribozyme variant] | 1.67 | 1.18 | 1.06 | 1.22 | 1.71 | 1.22
CCACAGUUCAAGCAAUAGGUC [Fam1B.1 aminoacylation ribozyme variant] | 0.858 | 0.862 | 0.794 | 0.783 | 1.14 | 0.731
CCACAGUUCAAGCAAUCAGUC [Fam1B.1 aminoacylation ribozyme variant] | 0.814 | 0.781 | 0.829 | 0.662 | 1.73 | 0.76
CCACAGUUCAAGCAAUCGGUG [Fam1B.1 aminoacylation ribozyme variant] | 3.62 | 3.14 | 3.29 | 4.04 | 25.9 | 5.44
CCACAGUUCAAGCCAUCGGUC [Fam1B.1 aminoacylation ribozyme variant] | 1.3 | 2.17 | 1.87 | 2.33 | 1.14 | 2.53
CCACAGUUCAAUCAAUCGGUC [Fam1B.1 aminoacylation ribozyme variant] | 2.08 | 0.96 | 0.806 | 0.905 | 2.95 | 0.881
CCACAUUUCAAACAAUCGGUC [Fam1B.1 aminoacylation ribozyme variant] | 9.95 | 1.28 | 1.41 | 1.33 | 17.8 | 1.31
CCACAUUUCAAGCAAUCAGUC [Fam1B.1 aminoacylation ribozyme variant] | 0.884 | 1.1 | 1 | 0.755 | 1.71 | 0.906
CCACAUUUCAAGCAAUCGCUC [Fam1B.1 aminoacylation ribozyme variant] | 2.38 | 2.42 | 2.6 | 2 | 2.39 | 2.17
CCACAUUUCAAGCACUCGGUC [Fam1B.1 aminoacylation ribozyme variant] | 0.97 | 1.37 | 1.25 | 1.15 | 0.933 | 1.16
CCACAUUUCAAGCAUUCGGUC [Fam1B.1 aminoacylation ribozyme variant] | 1.56 | 1.96 | 1.92 | 1.65 | 1.3 | 1.64
CCACAUUUCAAGGAAUCGGUC [Fam1B.1 aminoacylation ribozyme variant] | 1.28 | 1.31 | 1.52 | 1.34 | 1.67 | 1.49

Sequence | self-aminoacylation (biotinyl-Trp-oxazolone) | self-aminoacylation (biotinyl-Val-oxazolone) | self-aminoacylation (biotinyl-Ile-oxazolone) | self-aminoacylation (biotinyl-Met-oxazolone) | self-aminoacylation (biotinyl-Phe-oxazolone) | self-aminoacylation (biotinyl-Leu-oxazolone)
CCACCCUUCAACCAAUCGGUC [Fam1B.1 aminoacylation ribozyme variant] | 26.2 | 1.47 | 1.19 | 1.35 | 46 | 1.44
CCACCGUUCAAGCAAUCGGUC [Fam1B.1 aminoacylation ribozyme variant] | 1.11 | 1.41 | 1 | 0.827 | 1.27 | 0.983
CCACGCUACAAGCAAUCGGUC [Fam1B.1 aminoacylation ribozyme variant] | 1.2 | 0.999 | 0.937 | 0.858 | 1.3 | 0.851
CCACGCUCCAAGCAAUCGGUC [Fam1B.1 aminoacylation ribozyme variant] | 9.91 | 1.47 | 1.13 | 1.07 | 12.6 | 1.11
CCACGCUUAAAGCAAUCGGUC [Fam1B.1 aminoacylation ribozyme variant] | 0.646 | 1.02 | 0.96 | 0.741 | 0.884 | 0.752
CCACGCUUCAAGAAAUCGGUC [Fam1B.1 aminoacylation ribozyme variant] | 8.12 | 0.945 | 0.895 | 0.772 | 10.3 | 1.19
CCACGCUUCAAGCAAUCCGUC [Fam1B.1 aminoacylation ribozyme variant] | 1.07 | 1.1 | 0.754 | 0.507 | 1.34 | 0.648
CCACGCUUCAAGCAAUCGGUU [Fam1B.1 aminoacylation ribozyme variant] | 16.7 | 1.93 | 1.33 | 1.44 | 20 | 1.92
CCACGCUUCAAGCAGUCGGUC [Fam1B.1 aminoacylation ribozyme variant] | 0.91 | 1.33 | 0.755 | 1.03 | 1 | 0.887
CCACGCUUCAAGCGAUCGGUC [Fam1B.1 aminoacylation ribozyme variant] | 3.3 | 1.2 | 0.888 | 1.14 | 2.6 | 1.05
CCACGCUUCAGGCAAUCGGUC [Fam1B.1 aminoacylation ribozyme variant] | 1.35 | 1.77 | 1.22 | 1.35 | 1.41 | 1.39
CCACGCUUUAAGCAAUCGGUC [Fam1B.1 aminoacylation ribozyme variant] | 0.998 | 0.787 | 0.737 | 0.713 | 1.27 | 0.682
CCACUCCAAACAAUCGGUCUG [Fam1A.1 aminoacylation ribozyme variant] | 3.48 | 1.22 | 1.11 | 1.13 | 4.18 | 1.09
CCACUCGUCAAGCAAUCGGUC [Fam1B.1 aminoacylation ribozyme variant] | 0.864 | 1.58 | 1.15 | 1.18 | 0.586 | 1.35
CCACUCUGCAAGCAAUCGGUC [Fam1B.1 aminoacylation ribozyme variant] | 1.09 | 1.41 | 1.24 | 1.06 | 1.11 | 1
CCACUCUUCAAACAAUCGGUC [Fam1B.1 aminoacylation ribozyme variant] | 41.8 | 1.3 | 1.23 | 1.44 | 78.3 | 2.04
CCACUCUUCAAGAAAUCGGUC [Fam1B.1 aminoacylation ribozyme variant] | 4.87 | 0.871 | 0.932 | 0.91 | 5.4 | 0.903
CCACUCUUCAAGCAAUAGGUC [Fam1B.1 aminoacylation ribozyme variant] | 0.484 | 0.668 | 0.784 | 0.558 | 0.921 | 0.669
CCACUCUUCAAGCAAUCGGUU [Fam1B.1 aminoacylation ribozyme variant] | 2.27 | 1.6 | 1.53 | 1.53 | 2.51 | 1.16
CCACUUAAAACAAUCGGUCUG [Fam1A.1 aminoacylation ribozyme variant] | 1.12 | 1.13 | 1.11 | 1.44 | 0.816 | 1.05
CCACUUCAAACAAUCGGACUG [Fam1A.1 aminoacylation ribozyme variant] | 14.9 | 1.1 | 0.9 | 1.03 | 22.6 | 1.26
CCACUUCAAACAAUCGUUCUG [Fam1A.1 aminoacylation ribozyme variant] | 1.09 | 0.674 | 0.582 | 0.479 | 2.21 | 0.653
CCACUUCAAAGAAUCGGUCUG [Fam1A.1 aminoacylation ribozyme variant] | 8.92 | 1.13 | 1.15 | 1.04 | 11.4 | 1.32
CCACUUCGAACAAUCGGUCUG [Fam1A.1 aminoacylation ribozyme variant] | 1.32 | 1.24 | 1.15 | 1.77 | 1.26 | 1.41
CCAGACGUCAAGCAAUCGGUC [Fam1B.1 aminoacylation ribozyme variant] | 0.65 | 1.99 | 1.24 | 1.52 | 0.503 | 1.99
